These substances were tested against apoa1_human APOA1 (UniProt P02647).
apoa1_human APOA1, sequence (P02647 whole entry): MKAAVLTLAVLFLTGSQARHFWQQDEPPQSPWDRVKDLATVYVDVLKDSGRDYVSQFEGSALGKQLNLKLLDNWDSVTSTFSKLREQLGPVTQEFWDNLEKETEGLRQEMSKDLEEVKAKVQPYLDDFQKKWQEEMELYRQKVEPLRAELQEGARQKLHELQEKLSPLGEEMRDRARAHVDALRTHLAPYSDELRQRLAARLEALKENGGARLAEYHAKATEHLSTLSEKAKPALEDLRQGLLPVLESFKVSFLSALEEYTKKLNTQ

| Substance | effect of a mutation on the interaction |
| --- | --- |
| Phospholipid-transporting ATPase ABCA1 (Homo sapiens), O95477 C1477R | disrupting interaction strength |
| Phospholipid-transporting ATPase ABCA1 (Homo sapiens), O95477 S1506L | disrupting interaction strength |
| Phospholipid-transporting ATPase ABCA1 (Homo sapiens), O95477 W590S | increasing interaction strength |

Results, then the substance that gave them:

| effect of a mutation on the interaction | Substance |
| --- | --- |
| disrupting interaction strength | Phospholipid-transporting ATPase ABCA1 (Homo sapiens), O95477 Q597R |
| disrupting interaction strength | Phospholipid-transporting ATPase ABCA1 (Homo sapiens), O95477 R587W |

From IntAct's records for PubMed 12084722
